Experiment [1] addresses VP5 CT fragment from sequential chymotrypsin-trypsin digestion of VP4 Rhod5F (rhesus rotavirus (RRV)). Briefly: SDS-PAGE of unboiled and boiled samples; VP4 469C-Rhod5F digested with chymotrypsin (37°C, 30 min) then trypsin (room temperature, 1 h); reducing sample buffer (200 mM DTT), boiled at 95°C for 3 min or kept at room temperature for 3 min; 5-to-20% gradient gel, UV light and Coomassie blue.

Experiment [2] has as its target T1, wild-type recombinant VP4 labeled with pHrodo Red succinimidyl ester (rhesus rotavirus (RRV), UniProt P12473 1-776, pHrodo Red succinimidyl ester, 1 dye molecule per 2 VP4 monomers (residues not stated)).
T1 construct: VP4, outer layer spike protein of rhesus rotavirus (RRV), wild type; also called VP4-pHrodo Red; wt VP4; source: Sf9 cells infected with a baculovirus vector, purified (ammonium sulfate, Phenyl HP, HiTrap Q, S200)
In words: co-sedimentation; recoating of labeled DLP: 100 mM sodium acetate pH 5.2, VP4 at 0.9 mg/ml (~33-fold excess) 1 h at room temperature, then VP7 in 2.3-fold excess with 1 mM CaCl2 for 1 h; recoated particles separated from excess components by cesium chloride gradient centrifugation; dyes seen on single particles by confocal imaging. As to conditions: both partners purified.

Experiment [3] has as its target T2, wild-type recombinant VP4 labeled with Atto 565 NHS ester (rhesus rotavirus (RRV), UniProt P12473 1-776, Atto 565 NHS ester, about 1 dye molecule per VP4 monomer (residues not stated)).
T2 construct: VP4, outer layer spike protein of rhesus rotavirus (RRV), wild type; also called VP4-565; rVP4; source: Sf9 cells infected with a baculovirus vector, purified (ammonium sulfate, Phenyl HP, HiTrap Q, S200)
The experiment is described as above. As to conditions: both partners purified.

For experiment [4], the target named is T3, VP4 mutated at position 469 from serine to cysteine (rhesus rotavirus (RRV), UniProt P12473 1-776, S469C).
T3 construct: VP4, outer layer spike protein of rhesus rotavirus (RRV), with S469C; Unlabeled during recoating; It was labeled on the purified rcTLP afterwards with DBCO-maleimide and Rhod5F azide; also called VP4 469C; S469C; source: Sf9 cells infected with a baculovirus vector, purified (ammonium sulfate, Phenyl HP, HiTrap Q, S200)
The experiment is described as above. As to conditions: both partners purified.

By stoichiometry N is commonly meant a count of units in the complex or per binding partner. In the case of “VP5 CT fragment from sequential chymotrypsin-trypsin digestion of VP4 Rhod5F (domain or fragment)”, the stoichiometry N in experiment [1] worked out at 3.

B1: Atto 488 NHS ester-labeled VP7 (natural protein)
chain: QNYGINLPITGSMDTAYANSTQEETFLTSTLCLYYPTEAATEINDNSWKDTLSQLFLTKGWPTGSVYFKEYTDIASFSVDPQLYCDYNVVLMKYDATLQLDMSELADLILNEWLCNPMDITLYYYQQTDEANKWISMGSSCTIKVCPLNTQTLGIGCLTTDTATFEEVATAEKLVITDVVDGVNHKLDVTTATCTIRNCKKLGPRENVAVIQVGGSDVLDITADPTTAPQTERMMRINWKKWWQVFYTVVDYVNQIIQAMSKRSRSLNSAAFYYRI
modifications: Atto 488 NHS ester (residues not stated)
notes: VP7, Ca2+-stabilized outer layer protein of rhesus rotavirus (RRV); also called VP7-488
Regarding B1, the binding result in experiment [2], in experiment [3] and in experiment [4] was “binds” in each case.

The record behind these values is paper PMC6258952, “Visualization of Calcium Ion Loss from Rotavirus during Cell Entry” (Journal of Virology, 2018).
